According to patent US20180305452A1:

Key:
Test in all cases: flow cytometry, protein L-biotin then streptavidin-PE on LV-transduced human primary T cells
[1] = molecular target: CAR19 construct 1494 (LTG1494): SP-CD19binder-CD8link-CD8tm-signaling
Target sequence (chain, as listed by the source): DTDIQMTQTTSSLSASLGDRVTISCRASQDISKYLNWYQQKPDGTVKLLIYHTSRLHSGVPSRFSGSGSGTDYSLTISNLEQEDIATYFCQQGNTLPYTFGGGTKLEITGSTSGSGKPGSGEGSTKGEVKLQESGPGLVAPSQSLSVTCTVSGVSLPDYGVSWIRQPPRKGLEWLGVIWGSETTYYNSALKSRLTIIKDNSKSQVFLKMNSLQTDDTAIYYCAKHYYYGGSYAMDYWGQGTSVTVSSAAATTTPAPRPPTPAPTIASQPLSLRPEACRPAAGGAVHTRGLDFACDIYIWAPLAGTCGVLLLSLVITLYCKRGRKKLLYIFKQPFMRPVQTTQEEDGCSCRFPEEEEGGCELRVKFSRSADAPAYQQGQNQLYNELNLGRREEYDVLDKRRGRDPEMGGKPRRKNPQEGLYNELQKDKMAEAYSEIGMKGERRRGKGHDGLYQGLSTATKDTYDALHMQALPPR

[2] = molecular target: CAR19 construct 1712 (LTG1712): SP-CD19binder-TNFRSF16link-TNFRSF16tm-signaling
Target sequence (chain, as listed by the source): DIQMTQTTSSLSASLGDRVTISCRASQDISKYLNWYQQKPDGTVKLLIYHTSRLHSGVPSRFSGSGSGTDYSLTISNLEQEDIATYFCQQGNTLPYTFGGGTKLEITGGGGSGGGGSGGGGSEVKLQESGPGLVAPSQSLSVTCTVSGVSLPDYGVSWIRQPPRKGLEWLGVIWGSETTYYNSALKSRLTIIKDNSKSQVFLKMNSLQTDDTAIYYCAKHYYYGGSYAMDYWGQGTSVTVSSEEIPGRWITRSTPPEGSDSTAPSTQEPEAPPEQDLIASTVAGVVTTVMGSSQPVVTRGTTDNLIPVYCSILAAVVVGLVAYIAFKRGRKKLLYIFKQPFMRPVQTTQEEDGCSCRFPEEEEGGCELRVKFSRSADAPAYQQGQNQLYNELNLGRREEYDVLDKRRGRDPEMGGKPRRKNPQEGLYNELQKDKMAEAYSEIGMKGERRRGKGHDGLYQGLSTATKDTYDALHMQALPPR

[3] = molecular target: CAR19 construct 1713 (LTG1713): SP-CD19binder-Truncated TNFRSF19link-TNFRSF19tm-signaling
Target sequence (chain, as listed by the source): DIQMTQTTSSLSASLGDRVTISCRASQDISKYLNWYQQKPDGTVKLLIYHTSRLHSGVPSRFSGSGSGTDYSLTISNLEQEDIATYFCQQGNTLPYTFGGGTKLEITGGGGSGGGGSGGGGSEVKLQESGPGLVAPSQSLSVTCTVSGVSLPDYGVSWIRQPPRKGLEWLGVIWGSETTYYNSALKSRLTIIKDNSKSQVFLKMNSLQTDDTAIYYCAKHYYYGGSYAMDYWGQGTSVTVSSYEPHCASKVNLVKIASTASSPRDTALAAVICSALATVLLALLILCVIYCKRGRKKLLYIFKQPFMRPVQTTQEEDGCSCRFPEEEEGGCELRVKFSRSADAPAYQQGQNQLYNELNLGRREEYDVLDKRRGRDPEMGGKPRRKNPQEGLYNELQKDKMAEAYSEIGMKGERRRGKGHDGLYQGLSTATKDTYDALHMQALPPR

protein L-biotin conjugate
percentage CAR on T cell surface (cells stained) [1]: 90.4%
percentage CAR on T cell surface (cells stained) [2]: 86.4%
percentage CAR on T cell surface (cells stained) [3]: 0.3%
